Data from publication PMC12109899, “Aptamer-Based Planar Electric Double-Layer Field-Effect Transistor: A Novel Approach for Sensitive Troponin I Sensing”.

Biological target: cardiac troponin I (cTnI, TnI) (UniProt P19429 2-210)
Assay: fluorescence decrease of surface-immobilized FAM aptamer; aptamer on gold electrode; pH 7.4; 0.02x PBS stated for the chip rinse; aptamer immobilized at 24 °C for 24 h; binding temperature not given
Details: label: 3' FAM; single strand

Sequence of cardiac troponin I (cTnI, TnI) (P19429 2-210): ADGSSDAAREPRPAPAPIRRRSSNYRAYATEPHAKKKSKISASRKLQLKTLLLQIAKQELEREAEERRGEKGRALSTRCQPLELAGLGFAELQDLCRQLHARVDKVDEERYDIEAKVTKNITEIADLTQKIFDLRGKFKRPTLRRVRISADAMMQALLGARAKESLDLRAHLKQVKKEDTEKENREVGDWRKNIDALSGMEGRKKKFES

B1: Tro4 aptamer (ssDNA)
DNA: CGTGCAGTACGCCAACCTTTCTCATGCGCTGCCCCTCTTA
modifications: 5' disulfide (S-S), reduced with TCEP to thiol; immobilized on gold
B1: binds.
